Experiment: soluble on expression in E. coli; label from the status in PepcDB or PDB records

| Sequence | soluble on expression in E. coli |
| --- | --- |
| MGSDKIHHHHHHHVETIKNTFLNPKSNKVLVVAHRGNWRSAPENSTAAIDSAIAMKVDIVEIDIQKTKDGQLILMHDNTLDRTTTGKGEIKNWTLADIKKLKLKDKDGKVTNYVVPTLEEALLTAKGKIMVNLDKAYDIFDDVYAILEKTETQNQVIMKGGQPIETVKREFGSYLDKVLYMPVIDLGNKEAEKIITDYLKELRPAAFEIIYSDPKNPLPPKIKQLLFKKSLIWYNTLWGSLAGNHDDNLALTDPEKSYGYLIEQLGARILQTDQPAYLLDYLRKKGWHN | not soluble |
| MGSDKIHHHHHHIPNLEKSGSNFCMPFKGINVVKKCNMEYFLLNADFVNLEKTVFKKSQTLDNVCTGPENTFKTPDAGNYVVRYGERVLMTYKAGSNYRKCIGTYDVDDDLFTCVMPTDNNGFEGLEMGGFLYDPVTGEPHRDDGSVEVFCKIPHKF | not soluble |
| MGSDKIHHHHHHITPSISSKADNLIPRTNLEISNGQVFNESQIRLRGWGLNASGIKAIDIYVDGTWKKTLVKGDGFGLSRPDVKQAFPEYPDADYSGYDYYMYLPDGNHTLRVWAIGNDNSKVYSEANITVDTSNSKGTQLVNYARKFIGVPYVWGGDTPNGFDCSGLVMYCYAHFGVNLPHYTGDQVKYGTVVTDLQPGDLLFFGSTSDPYHVAIYSGNGYMIEAPKTGENVHETPVRSYSIAKRIF | not soluble |
| MGSDKIHHHHHHKDSNKWKMTGDVSVQDDIMTLKGTDALAVLKNGKYKNFDLTLDLRTTPGGKGAVWFHTDPTLKKGYRIAINNDRADKVWWKMTGSLVSVRNLTKSFVKEDQWFKMDIRVAGQEIDVNINGEPVVEYIQPTAPYRTDANAYALLSEGTFAIESDGSGEIQIKNITVNVIDESTIDINAQLAEANDEQNDEIIKLHQSDFPVLDYHVHLKGGLTKEVAAKQSRKTGINYTIAPNCGIGFPITNDQQVMDYLNEMRSQPFILGMQAEGREWITTFSPETLKEFDYVFTDALTFKDNKGRRTRLWIPEETWIENEEQYMDMIVDRICSVLEEPVDIYVNPCFLPSPMDKRFDEFWTEARMNRFVEALAKSGKALEINELYNIPNKAIIMKAKAAGVKFTFGSNNVTPNVSDLSYSIRMMKECGLTAEDMYKPKVKI | not soluble |
| MGSDKIHHHHHHKDTKWVDVPTGTPPEGSVTGKPGETEEPDDPDPTDKTFINCSYIRGDFFETNRISGASMGACNDLIYLTARPYADGDLTFDLPVNDATLTGAATYAASYNGRNGVLKLDGTGKMNAGDGLLHSPDGAFKKFTFGTYIYVSEWVDGACLFKKVDGGSVVIAFQLGATEGNLKLTVGSATATVTNSALKSGAWHYVAVTYDGGAAKLYIDTNNTATDFTGSLPASVPNTRADFVMGENLKGYLDETFVNSLLMGTLGRNPISFDNWNNTKTLAYWKYDDAAKPGKDSHTWAIRLEQIRTALNGQAGDRKIRLGIAGGEWLKMVGNATARTNFANNVKKVIEQYNLDGADLDFEWAYSGTDLSNYSKAIVQLREVLGKDVFLTVSLHPVSYKISAEAIAAVDFISLQCYGPSVELFSMERFKSDGKAAVDYGIPQDKLVMGVPFYGTTGTAGEQAAYFDLVGKGNLTNTSADTWSYEGKNYTLNSQNTIRQKTQYVCENGFGGIMSWDLATDVDVTHEMSLLKAVKEELDYYANPTVE | not soluble |
| MGSDKIHHHHHHLASHHSLLNHQRHFERIGPDYRNGDSVSFLDIKHTFGLQHIRVGKWVNREESALAANLIFDSLADLANILAVPPELIGLRGSLRFAFGHGGQKGVQAHYSPAYRELALAKNAGAGALAHEFWHAFDHYIADKMFIDDSILDPYLSSLILSEQTTNTTRTNFSRANLFACASDNWLADKSIIAHPLNKKLSSLFKVTLLSANGQEPHDYVRRSIALDKQQRSHYFAKPTEMMARAFESCIEMYSQDYANISNPYLVNSTIDSPLAKHGAYPDAQHCREIYQAMMEYFEPLGLAFDKQNGQK | not soluble |
| MGSDKIHHHHHHLDGDTQISIEALTSLSQITAEEWDACACPEDGRPLDPFTTYRFLDALEQSGSVGPGSGWQPRYLVARMDDQVIACAPMYAKGHSQGEYIFDHNWAHAYENAGGAYYPKLQIAAPFTPATGRRFLTRPGHDATGISALIQGAVQIAADNDLSSLHVTFCTEDEAIAGERIGLMRRWSQQFHWVNDGYADFDGFLASLSSRKRKNIRKERARAQAFGGEIVSLTGAQIKAEHWDAFWHFYQDTGARKWGTPYLTRAFFDIVHETLTDDMLLCLAIREGQPVAGALNFIGADTLYGRYWGCVEDHPCLHFELCYYQAIDYAIANGLSRVEAGAQGAHKLARGYLPVATHSLHWVRDAGFAEAIGRYLEAEREAVDEEIEVLTGYGPFKRA | not soluble |
| MGSDKIHHHHHHLIKSIFNKLFNLRENNPIERPKSFSATDLGKPLAISPKNITQQESISANVVYVDLSALFYSLLFPARVNDAGGIANNLERRVMAEIEHALASPQVIAEKVLKLPSKVLELDRKLADPQFDIKALLALIERDPLLSVEVLKLCNSPAFKRSDRDITNLQQALVQLGREQLRKFVTTCLVREMLDIKPIYFRRFGAEIWRHSMQVAFLASELSDEDQDTAFLLGLLHDVGKLAIFKMLLDAFVQAEPGEQPNSGLFRQVMTTKSLTLSSLLAKHWQLPNTFETELDRLASVNSRPQAGLAAVVWRANVISEISMLHQAGQLSPEILANLLQQVNLEQTQFDGLHQKLLQF | not soluble |
| MGSDKIHHHHHHLKIITVSGPPSSGKTSVIIKTIEYLKKDQLEIGVVKFDSLSTYDDQMYKKLGVKVKVGLSGNLCPDHYYMTNIEDCVKWGVSEKLDMLISESAGLCNRCSPHIRDVLAICVIDNLSGINTPKKIGPMLRLADIVVITKGDIVSQAEREVFAFRAKQSSPRASIVFINGITGQGAYDLSLRLKEANDYESVIDKKLRFSMPAAVCSYCTGEIRIGERYQTGNIKKIKL | not soluble |
| MGSDKIHHHHHHLPLLLPVGSQILRNKMRSKPRILIALSSVGLGGAERQGLMFAEYLKCKHSFDVLVSTFGGEGKVSLLCKETGIQHVNIAYPLLGHRWEVWWKLISTALTLRKIKPDCIVSYCMPANAACAAVWRLTGARACIWGQRDAGLQKELLTPIPLAPRLATCFVSNSPHGAAFLENQLAIPRHKISTIPNAVKLNVAQLSRTEWRSRLKISHDAMIVTMVSNLSFRKDHETLLKAWRIGLDNQLFPQNTKLVLCGRDDSNAPVIRKLAGKLHLDNHIRFAGATDDVAGILNASDIAAFSFISEGLPNVVIESMAAGLPVVATDIPGVRAAIGSCDDNILVPPKDPAAMAHGIAKILQDPALRSRAAAANITQATSTFAPDVVFSAFAKLILSNI | not soluble |
| MGSDKIHHHHHHLPRRYEDIYPSLPLLNSDGLEHMSAASLMSVRYFQAEPDRMPEDVFAEHHILLNLKAEPHRVQNTRDGEMRDFTFSKNDIIVTPAGMRSGWRWFAQSDVIVVTLLPDRVQRFAETELGLLLDPQQLGDLPLFSDADLCAAGVMLRDALEADDMSSAVMFEALSRVFLVKLLQRYGKRRPEDVALSSRFTSAHYNRVLAFIRANLERTITLDDLASEAGMSPSHFSRLFKDTVGTPPMQYVMAYRIEQSLAMMTDQGRALGDIALACGFADQAHFSRSFKQLMGATPRQHRSSLS | not soluble |
| MGSDKIHHHHHHLRSNRVTQHPPLQLSLPVHLPDDETFTSYYPAAGNDELIGALKSAASGDGVQAIYLWGPVKSGRTHLIHAACARANELERRSFYIPLGIHASISTALLEGLEQFDLICIDDVDAVAGHPLWEEAIFDLYNRVAEQKRGSLIVSASASPMEAGFVLPDLVSRMHWGLTYQLQPMMDDEKLAALQRRAAMRGLQLPEDVGRFLLNRMARDLRTLFDVLDRLDKASMVHQRKLTIPFVKEMLRL | not soluble |
| MGSDKIHHHHHHLRVKKKWFIPIGILALSSWFLYRENNQIDTTAVTVQSDKLPAAFNDYKILQIADLHGKSFGSRQKVLLKKVNKLQPDVILMTGDLIDSRRNGEEEALLLMKQLTPDYPVYFVTGNHEVRLNLTILPKLEQLGVTVLRNTSVSLEQNGQFIELLGIDDPTTTRWSEGLQEPDGIRQSLDQAQSTAETRSFQLLMAHRPEYLPLYAERKVDLVLSGHAHGGQIRLPFTDGMYAPGQGFFPDLTAGQHTMENTRLIISRGLGNSLFPFRIFNHPELIVVTLRT | not soluble |

Source: the DeepSol protein solubility set
